Legend:
[1] = target: recombinant human FcRn (FcγRn-SmBiT, Lumit assay) (human) (UniProt P55899); assay: Lumit FcRn Binding Immunoassay (Promega), competition with Tracer-LgBiT for FcRn-SmBiT, n=1
FcγRIIa (CD32) (H131) = assay: Lumit FcγRIIa (H131) Binding Immunoassay (Promega), left panel FcγRIIa (CD32) (H131), competition with Tracer-LgBiT, n=1
[2] = target: FcγRIIIa (CD16) (V158) (Homo sapiens) (UniProt P08637); assay: Lumit FcγRIIIa (V158) Binding Immunoassay (Promega), left panel FcγRIIIa (CD16) (V158), competition with Tracer-LgBiT, n=1
Sequence of FcγRIIIa (CD16) (V158) (Homo sapiens) (P08637 17-208 F176V limits assumed): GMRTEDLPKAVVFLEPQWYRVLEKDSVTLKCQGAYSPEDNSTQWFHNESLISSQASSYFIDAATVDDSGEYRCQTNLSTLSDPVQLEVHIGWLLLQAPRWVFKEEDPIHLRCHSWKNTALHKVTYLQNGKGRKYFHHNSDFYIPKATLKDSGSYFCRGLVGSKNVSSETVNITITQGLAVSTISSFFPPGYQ

Sequence of FcγRIIa (CD32) (H131) (chain, as listed by the source limits assumed): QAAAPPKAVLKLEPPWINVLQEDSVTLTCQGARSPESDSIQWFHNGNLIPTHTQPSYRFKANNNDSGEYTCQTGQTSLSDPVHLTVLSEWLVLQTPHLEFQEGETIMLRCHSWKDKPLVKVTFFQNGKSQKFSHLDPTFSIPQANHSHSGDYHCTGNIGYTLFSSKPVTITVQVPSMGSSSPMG

IC50 (read off the curve) [1]: 2 µg/mL | IC50 (read off the curve) (FcγRIIa (CD32) (H131)): 1 µg/mL | IC50 (read off the curve) [2]: 2 µg/mL
Substance: IgG1 positive control (standard of the Lumit FcγR Binding Immunoassays) (antibody)

Reference: patent publication US20240182596A1, “ANTI-NAPI2B ANTIBODIES AND ANTIBODY-DRUG-CONJUGATES BASED THEREON, THERAPEUTIC METHODS AND USES THEREOF” (Tubulis GmbH, priority 2022, published 2024)
